# System: MS2 coat protein
# Experiment: apparent KD of MS2 coat protein; designed switch direction (-1 OFF switch, 1 ON switch): -1; higher = weaker reporter binding
# Method in brief: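 Stalled E. coli RNA polymerase transcribed designed RNA switches on Illumina chips, which were then titrated with SNAP-549-labelled MS2 coat protein, doubling from 0.7 or 1.5 nM to 3 µM. Steps lasted from 0.8–1.5 h at the lowest concentration to 10–20 min at the highest. The apparent KD is each design's median over clusters of curve-fitted normalised fluorescence.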
# [1] = input ligand: microRNA oligo, concentration not stated
# [2] = Eterna round: R95, input ligand: microRNA oligo, concentration not stated
# [3] = Eterna round: R95, input ligand: FMN 200 uM
# [4] = Eterna round: R95, input ligand: none
Sequence,apparent KD of MS2 coat protein (input ligand: FMN 200 uM) [µM],apparent KD of MS2 coat protein (input ligand: none) [µM],apparent KD of MS2 coat protein [1] [µM],apparent KD of MS2 coat protein [2] [µM],apparent KD of MS2 coat protein [3] [µM],apparent KD of MS2 coat protein [4] [µM]
"GCUAGGAGUGUGAGGAUAUGCAGUUCCUUGGAACUGCAGAAGGCACAUGAGGAUCACCCAUGUGAAGACCUAGC [Mat - Exclusion 4 - JL Mod - D4] (Eterna round: R97, puzzle: Brourd's mod of Exclusion 4)",0.212,0.0266,,,,
"GCUAGGCAUGUCAGGAUAUGCUGUACCUUGGUACAGCAGAAGGGACAUGAGGAUCACCCAUGUGCCUACCUAGC [JL-BMX4-4.04] (Eterna round: R97, puzzle: Brourd's mod of Exclusion 4)",0.173,0.0283,,,,
"GCUCGUGGGCAAGGAUAUCCUACGCUGUUCUGGUUCGUGUCUGUCACAUGAGGAUCACCCAUGUGGGAGAAGGUGCAUUUGGGU [Design 56] (Eterna round: R96, puzzle: Exclusion NG 2)",0.0182,0.0206,0.0159,,,
"GCUGCAAAUGUAGGAUAUCUGCACGUGUAGUGCAGAGAAGGACAUGAGGAUCACCCAUGUAGAUCAGCAGCAAUUAAUUUAAUU [ENG1/5-A3] (Eterna round: R96, puzzle: Exclusion NG 1)",0.288,0.0422,0.0345,,,
GCUGCGCGAGGAUAUGCGGUUCGCGCGGUGGCCCGUGGCGGACAUGAGGAUCACCCAUGUAGAAGGCGUGCGGG [Apr-15 SS2-59] (puzzle: Exclusion 2),,,,0.0112,,
"GCUGGAAAAGGAUAUACAUAACGUGCGUCGGCACGAGACCUACAUGAGGAUCACCCAUGUAGAAGGUUUCCAGC [EX2 #74] (Eterna round: R97, puzzle: Exclusion 2)",0.0209,0.0136,,,,
"GCUGGACAAGGAUAUAUAUGACGUGCUUCGGCACGAAGGUCACAUGAGGAUCACCCAUGUAGAAGGUGUCCAGC [E2/9-C2] (Eterna round: R97, puzzle: Exclusion 2)",0.342,0.0497,,,,
"GCUGGUCAAGGAUAUAUAUGACGUGCUUCGGCACGAAGGUCACAUGAGGAUCACCCAUGUAGAAGGUGACCAGC [E2/9-C1] (Eterna round: R97, puzzle: Exclusion 2)",0.304,0.0397,,,,
"GCUGGUCGAGGAUAUACAUGAGGAUCACCCAUGUGAUUAGCAGUCCUCGGACUGCAAUGUAGAAGGUGACCAGC [E3/2-B1] (Eterna round: R97, puzzle: Exclusion 3)",0.907,0.198,,,,
"GCUGGUCGAGGAUAUGCAUUCGUGCUUCGGCACGUAAGGUCACAUGAGGAUCACCCAUGUAGAAGGCGACCAGC [E2/6-A1] (Eterna round: R97, puzzle: Exclusion 2)",0.0302,0.0175,,,,
GCUUGGCGAGGAUAUACAUGAGGAUCACCCAUGUGAGAGAAAUAAGUGAGGAAGAAAAGUAGAAGGCGCUGAGG [Mat - Exclusion 3 - Mod of Salish D59] (puzzle: Exclusion 3),,,,0.0589,0.167,0.0611
"GCUUGUGGGCAAGGAUAUCCUGCGCUGUUCUGGUUCGUGUCUGUCACAUGAGGAUCACCCAUGUGGGAGAAGGUGCCUGUGGCG [Design 66] (Eterna round: R96, puzzle: Exclusion NG 2)",0.022,0.0242,0.0174,,,
"GCUUGUGGGCAAGGAUAUCCUGCGCUGUUCUGGUUCGUGUCUGUCACAUGAGGAUCACCCAUGUGGGAGAAGGUGCCUUUGGUG [Design 64] (Eterna round: R96, puzzle: Exclusion NG 2)",0.0134,0.0149,0.0109,,,
"GCUUUAUGCUCGUUAUAACACAUGAGGAUCACCCAUGUUCGGGCUUACGAGUCGUUCUGAAUGUGACCCUGCAUGAG [Eternabot (L2) Solution 47] (Eterna round: R97, puzzle: Sensor, turn-off variant 1)",0.2,0.193,,,,
"GCUUUUGGGCAAGGAUAUCCUGCGCGGUUCCGGUUCGUGUCUGUCACAUGAGGAUCACCCAUGUGGGAGAAGGUGCCUGCGGUG [Design 73] (Eterna round: R96, puzzle: Exclusion NG 2)",0.0215,0.019,0.0117,,,
GGAAAGCAAGGAUAUACAAGUAAACGAUGGAAAGUAGAGAGACAUGAGGAUCACCCAUGUAGAAGGUGCGAGAG [JR_Exclu2_Sub036] (puzzle: Exclusion 2),,,,0.0301,0.0241,0.0222
GGAAAGGUAGGAUAUACGAAAAAAAAGGGUAGAAAAAAAACACAUGAGGAUCACCCAUGUAGAAGGACCAAAAG [salish99_ex2_r3_036] (puzzle: Exclusion 2),,,,0.0361,0.0448,0.033
GGAAAGGUAGGAUAUACGAAGAAAAAGGGUAGAAGAAAAACACAUGAGGAUCACCCAUGUAGAAGGACCAAAGG [Mat - Exclusion 2 - Mod of my Tesla design - D2] (puzzle: Exclusion 2),,,,0.0221,0.0514,0.0234
GGAAAGUGAGGAUAUGGUAAAGUAAGUAUGUAGUAAGUAAUCCAGAAGGCACAUGAGGAUCACCCAUGUAAAGG [Mat - Exclusion 4 - D101] (puzzle: Exclusion 4),,,,0.0254,0.0248,0.0268
GGAGAGUCAGGAUAUACAUGAGGAUCACCCAUGUUGGAAAGUGGAGGGACGGGAGUCCGUAGAAGGGACGAGAG [Identicality] (puzzle: Exclusion 3),,,,0.0277,,
"GGAGGAAACGUAGGAUAUUGAAUAAAGCGGAAACGCAAGACAUGAGGAUCACCCAUGUGUCCGGACGAGAAGGGCGAAGAAGAA [AK 1] (Eterna round: R96, puzzle: Exclusion NG 2)",0.0598,0.0808,0.0601,,,
"GGAGGAGGAGUGAGGAUAUGGUGGUGGAAACACCACCAGAAGGCACAUGAGGAUCACCCAUGUGAUGUAGAGAA [AK-MS2ROC-r4-Bmoexclusion4-16] (Eterna round: R97, puzzle: Brourd's mod of Exclusion 4)",0.0274,0.016,,,,
"GGAGGCCAGUAAGGAUAUUCAUGGUAGAUUCAUGAAGAAGGUACGGAGUGUCCUGACAUGAGGAUCACCCAUGUAGCCUCCAAG [Betien] (Eterna round: R96, puzzle: Exclusion NG 1)",0.0764,0.0343,0.0251,,,
"GGAUAAAACUGAGGAUAUGAGGAGAGAGAGAGAUCAGAAGGCAGACAUGAGGAUCACCCAUGUGAGUUCUCGAUAAGAAACACG [Prohibition 56 - Jieux - Exclusion NG 1] (Eterna round: R96, puzzle: Exclusion NG 1)",0.0589,0.0383,0.0307,,,
"GGAUAUAACGUAGGAUAUCUGAGAAAUAGAUGAAGAGAAGGACGACAUGAGGAUCACCCAUGUGAUCUAUCAAUAUUAUACAUG [Prohibition 100 - Jieux - Exclusion NG 1] (Eterna round: R96, puzzle: Exclusion NG 1)",,,0.332,,,
"GGAUAUAACGUAGGAUAUGAGCGCAACUGACGAUCAGAAGGACGACAUGAGGAUCACCCAUGUGAUCUAUCAAUAUUAUACAUG [Prohibition 95 - Jieux - Exclusion NG 1] (Eterna round: R96, puzzle: Exclusion NG 1)",0.59,0.977,0.495,,,
"GGAUCAUAUGUCAGGAUAUGCUGGUCCUUGGAUCAGCAGAAGGGACAUGAGGAUCACCCAUGUCAUGAAGAUCC [Eli bmx4 4.79] (Eterna round: R97, puzzle: Brourd's mod of Exclusion 4)",0.203,0.0283,,,,
"GGAUCGAGUGUGAGGAUAUACCUAUGGAUACAUAGGUAGAAGGCACAUGAGGAUCACCCAUGUUCCUACGGUCC [Eli bmx4 4.08] (Eterna round: R97, puzzle: Brourd's mod of Exclusion 4)",0.713,0.0623,,,,
GGAUGUUAGGAGGAUAUCUGACGUCGAAAAGAAGGAGAAGGCCUGACAUGAGGAUCACCCAUGUGGUCAAAAGA [Eresinbi] (puzzle: Exclusion 6),,,,0.11,1.2,0.0978
"GGAUUGCGGCAAGGAUAUCUUUGUCAACAUAAAACAUGAGGAUCACCCAUGUGCAUCUUCGUGUGAGAGAAGGUGCGGCGAUCC [Geceretima] (Eterna round: R96, puzzle: Exclusion NG 2)",1.62,0.18,0.248,,,
